Test results published in paper PMC10653801.

B1: OI (O1 downstream repeat inverted) (dsDNA)
DNA 1: TATCATTTTTACTGCTATAAAATGACTATATAATTAATTTTTGGTGTTCC
DNA 2: GGAACACCAAAAATTAATTATATAGTCATTTTATAGCAGTAAAAATGATA
B2: CO (random + O1) (dsDNA)
DNA 1: ACTGTGAGCCTAATATTTACTGCTATAACAGTAAAGGCTATCTGATTTTA
DNA 2: TAAAATCAGATAGCCTTTACTGTTATAGCAGTAAATATTAGGCTCACAGT
B3: OS (O1 scrambled) (dsDNA)
DNA 1: TATCATTTAACAAACTCGATTTGTTATATATAATTAATTTTTGGTGTTCC
DNA 2: GGAACACCAAAAATTAATTATATATAACAAATCGAGTTTGTTAAATGATA

Target: HipB(Lp) (Legionella pneumophila Lp01JK, UniProt Q5ZSZ8 1-75)
Assay: EMSA; HipB 2.5 nM, DNA 10 nM
Conditions: protein: recombinant; tags: His6-SBP tag cleaved; chain copies: 2; blunt

Binder | binding result
B1 | binds
B2 | binds
B3 | no binding
